Assay results taken from US9308238B2, “Compositions and methods for modulating EMT and uses thereof” (Whitehead Institute for Biomedical Research, priority 2010, dated 2016).

Assays:
Type in all cases: cell-based, human
HMLE^24+ cells [1] = experiment: Mammosphere assay, HMLE^24+ cells after 14 day treatment
Method: (§1) FIGS. 5A-5H. Concomitant stimulation of Wnt and TGF-beta pathways allows HMLE^24+ cells to enter into a mesenchymal and SC-like state. (FIG. 5A) RT-PCR: N-Cadherin, Zeb1 and Zeb2, L32 was loading control, n=3. Prior RNA isolation, HMLE^24+-shGFP or -shSFRP1 (stable knockdown of SFRP1, FIG. 12A) cells were treated for 3 days with daily doses of indicated factors: anti-DKK1 antibody (10 μg/ml), anti-E-Cadherin antibody (1 μg/ml), TGF-beta 1 (5 ng/ml), Wnt5a (250 ng/ml), (FIG. 5B) Brightfield microscopy: images of control, TGF-beta- and iEMT-cocktail treated HMLE^24+ cells after 14 days of treatment as indicated (see also FIG. 12D). (FIG. 5C) RT-PCR: Zeb1, Zeb2, E-Cadherin and N-Cadherin, L32 was loading control, n=3. After 14 day treatment, cells were expanded in absence of further stimulation for 4 passages. Shown are PBS-treated control HMLE^24+-shGFP and HMLE^24+-shSFRP1 cells, two HMLE^24+-shGFP cultures treated with TGF-beta 1 (TGF-β-a and -b), two HMLE^24+-shSFRP1 cultures treated with the iEMT-cocktail (iEMT-a and -b). […] (FIG. 5G) Lung metastasis: cells expanded for 8 passages after cessation of treatment as described in (C) were transformed with RAS; 1.0×10^5 cells were injected into the mammary fat pads of mice; GFP-labeled metastases on the surface of the lungs were quantified; *control vs. all other groups, p<0.05, n=5 mice/group. […]

HMLE^24+ cells [2] = experiment: Flow cytometry of CD44/CD24, HMLE^24+ cells after 14 day treatment; details: control 0.2%
Method: as §1, with “passages.” for “passages. Shown are PBS-treated control HMLE^24+-shGFP and HMLE^24+-shSFRP1 cells, two HMLE^24+-shGFP cultures treated with TGF-beta 1 (TGF-β-a and -b), two HMLE^24+-shSFRP1 cultures treated with the iEMT-cocktail (iEMT-a and -b).”
Fluorescent activated cell sorting (FACS) and flow cytometry. […] Samples were sorted on a BD FACSAria SORP and analyzed on a BD LSRII using BD FACSDiva Software (BD Biosciences).

HTwist and MSP cells = experiment: Mammosphere assay, HTwist and MSP cells
Method: FIGS. 10A-10E. […] (FIG. 10E) Mammosphere Assay: HTwist and MSP were treated daily during mammosphere formation (5 days) with BMP4 (0.5 μg/ml), SB431542 (10 μM) or a combination of both, n(mammospheres)/1000 cells, n=6.
Mammosphere and tumorsphere assay. Assays were performed as previously described with modifications (Dontu et al., 2003): 1000 cells/well were seeded in 96-well ultra-low adhesion plates (Corning) in MEGM medium containing 1.3% methylcellulose (Stem Cell Technologies) supplemented with 20 ng/ml EGF, 10 ng/ml bFGF (both Sigma) and B27 (Gibco). Primary spheres were dissociated by trypsinization and replated for secondary sphere formation after a period of 5-7 days.

basal MECs [3] = experiment: Mammosphere assay, primary basal cells after pre-treatment; details: 5 day pre-treatment, assay without further treatment
From the text: (§2) FIGS. 7A-7G. Migratory and self-renewal properties in primary MECs: inhibition and induction. (FIG. 7A) Mammosphere Assay: microscopy images of mammospheres and quantification of mammosphere formation by purified basal, luminal and unsorted MEC populations. Primary spheres were allowed to form over a period of 7 days, dissociated and seeded for secondary sphere formation, n(mammosphere)/1000 cells, n=48, (FIG. 7B) Migration Assay: microscopy images of migrated cells in Boyden Chambers and quantification, n=6. (FIG. 7C) Mammosphere Assay: basal cells were seeded into assay after a 5 day pre-treatment with TGF-beta inhibitors A83-01 and […] (SB43, both inhibitors at 10 μM) as well as recombinant SFRP1 (1 μg/ml), n(mammospheres)/1000 cells, n=6. (FIG. 7D) Migration Assay: basal cells were seeded into migration assays treated after 5 day pre-treatment as described in (C), n=24. (FIG. 7E) Mammosphere Assay: luminal cells were seeded into the assay following a 5 day pre-treatment with TGF-beta 1 (5 ng/ml), Wnt5a (250 ng/ml), anti-E-Cadherin antibody (1 μg/ml) plus anti-DKK1 antibody (10 μg/ml), and a cocktail of all factors added together (iEMT-II), n(mammospheres)/1000 cells, n=24. (FIG. 7F) Migration Assay: luminal cells were seeded into Boyden Chambers following a 5 day pre-treatment as described in (E), n=6. […]

basal MECs [4] = experiment: Migration assay, primary basal cells after pre-treatment; details: 5 day pre-treatment
From the text: as §2

## TGF-beta 1: recombinant TGF-beta 1 protein, used at 5 ng/ml
HMLE^24+ cells [1]
  increase in mammosphere formation vs untreated control cells: 10 fold
HMLE^24+ cells [2]
  proportion of CD44high/CD24low-negative cells: 1.5%

B1: BMP4: Recombinant BMP4 protein obtained from Stemgent (protein, UniProt P12644 293-408, looked up)
Bone morphogenetic protein 4: SPKHHSQRARKKNKNCRRHSLYVDFSDVGWNDWIVAPPGYQAFYCHGDCPFPLADHLNSTNHAIVQTLVNSVNSSIPKACCVPTELSAISMLYLDEYDKVVLKNYQEMVVEGCGCR
HTwist and MSP cells; added daily for 5 days (FIG. 3D)
  reduction of primary mammosphere formation: 60%
HTwist and MSP cells; both cell lines, treated during primary sphere formation only
  reduction of secondary sphere formation: 90%

B2: SFRP1: Recombinant human SFRP1 protein (R&D Systems), secreted decoy receptor binding canonical and non-canonical Wnt ligands (protein, UniProt Q8N474 32-314, looked up)
Secreted frizzled-related …: SEYDYVSFQSDIGPYQSGRFYTKPPQCVDIPADLRLCHNVGYKKMVLPNLLEHETMAEVKQQASSWVPLLNKNCHAGTQVFLCSLFAPVCLDRPIYPCRWLCEAVRDSCEPVMQFFGFYWPEMLKCDKFPEGDVCIAMTPPNATEASKPQGTTVCPPCDNELKSEAIIEHLCASEFALRMKIKEVKKENGDKKIVPKKKKPLKLGPIKKKDLKKLVLYLKNGADCPCHQLDNLSHHFLIMGRKVKSQYLLTAIHKWDKKNKEFKNFMKKMKNHECPTFQSVFK
Basal MECs [3]
  reduction of mammosphere formation: 80-90%
Basal MECs [4]
  reduction of motility: 3 fold
